Source: PMC3217859, “Protein phosphatase 2a (PP2A) binds within the oligomerization domain of striatin and regulates the phosphorylation and activation of the mammalian Ste20-Like kinase Mst3” (BMC Biochemistry, 2011)

Target: T1, HA-tagged Δ(70-116) striatin (human, UniProt O43815 1-780, Δ(70-116))
T1 construct: also called coiled-coil deletion mutant; source: HEK293, transfected, in lysate; not shown: HA, N-terminal, kept
T1 sequence (looked up): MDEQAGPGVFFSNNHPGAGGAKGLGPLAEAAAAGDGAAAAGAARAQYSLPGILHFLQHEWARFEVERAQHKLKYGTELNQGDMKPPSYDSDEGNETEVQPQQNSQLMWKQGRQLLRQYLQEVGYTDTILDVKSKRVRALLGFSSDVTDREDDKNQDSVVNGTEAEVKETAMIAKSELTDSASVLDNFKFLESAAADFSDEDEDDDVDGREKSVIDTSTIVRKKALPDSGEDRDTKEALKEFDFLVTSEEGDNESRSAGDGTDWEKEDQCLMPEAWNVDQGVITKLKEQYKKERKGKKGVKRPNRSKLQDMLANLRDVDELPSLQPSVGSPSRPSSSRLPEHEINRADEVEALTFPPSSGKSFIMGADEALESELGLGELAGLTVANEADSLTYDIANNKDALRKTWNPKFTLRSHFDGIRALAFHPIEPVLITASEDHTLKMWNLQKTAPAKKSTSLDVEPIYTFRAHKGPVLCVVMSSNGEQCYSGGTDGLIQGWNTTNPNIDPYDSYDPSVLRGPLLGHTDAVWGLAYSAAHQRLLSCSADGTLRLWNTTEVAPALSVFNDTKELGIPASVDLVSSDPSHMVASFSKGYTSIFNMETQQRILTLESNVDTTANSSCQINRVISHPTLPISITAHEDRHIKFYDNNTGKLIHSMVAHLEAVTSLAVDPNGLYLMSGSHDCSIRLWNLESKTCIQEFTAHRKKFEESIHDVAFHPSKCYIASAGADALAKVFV
Assay: co-IP; anti-HA immunoprecipitates (12CA5 with protein A-Sepharose, or F7 anti-HA-agarose when probing for Mst3 or Mst4; 1.5 h, 4°C) of lysates (1% Nonidet P-40, 0.135 M NaCl, 10% glycerol, 20 mM Tris pH 8.0) of HEK293 cells transfected with HA-striatins; endogenous partners by immunoblot, partner/HA-striatin ratio by chemilumimager against wild type; 50 mM NaF and 100 nM okadaic acid in the lysis buffer in the …
Details: partners not purified

B1: Mob3/phocein (natural protein, human (endogenous in HEK293), UniProt Q9Y3A3 1-225, looked up)
chain: MVMAEGTAVLRRNRPGTKAQDFYNWPDESFDEMDSTLAVQQYIQQNIRADCSNIDKILEPPEGQDEGVWKYEHLRQFCLELNGLAVKLQSECHPDTCTQMTATEQWIFLCAAHKTPKECPAIDYTRHTLDGAACLLNSNKYFPSRVSIKESSVAKLGSVCRRIYRIFSHAYFHHRQIFDEYENETFLCHRFTKFVMKYNLMSKDNLIVPILEEEVQNSVSGESEA
notes: source: endogenous, HEK293 lysate
percent of the wild-type level bound: 40 % of wild-type levels
